Laboratory results: US9784749

Legend:
[1] = molecular target: r244 rabbit anti-human TnTuORF antiserum; experiment: competitive radioimmunoassay with r244 and 125I-TnTuORF(Tyr) tracer
[2] = molecular target: r244 rabbit anti-human TnTuORF antiserum; experiment: competitive radioimmunoassay, TnTuORF standard against 125I-TnTuORF(Tyr) tracer for r244

Binder: MAPEGWVIVVIS [Synthetic human Troponin T upstream open reading frame (TnTuORF) peptide]
- Cross reactivity with TnTuORF antiserum (%) [1]: 100%
- ED50 [2]: 0.458 µg/mL
